According to article PMC9629515:
Read-outs that look alike come from different tables or passages of the source.

Legend:
[1] = molecular target: cytosolic domain of Photorhabdus luminescens LscV (LscVC; residues 357–705) (Photorhabdus luminescens (Table 1: Photorhabdus laumondii TT01)); assay: crystal structure
[2] = molecular target: cytosolic domain of Photorhabdus luminescens LscV (LscVC; residues 357–705) (Photorhabdus luminescens (Table 1: Photorhabdus laumondii TT01)); assay: crystal structure; remark: listed apart in the source
[3] = molecular target: cytosolic domain of Aeromonas hydrophila AscV (AscVC; residues 375–721) (Aeromonas hydrophila AH3)

Row | Substance | stoichiometry N [1] | stoichiometry N [2] | stoichiometry N [3]
1 | cytosolic domain of Photorhabdus luminescens LscV (LscVC; residues 357–705) (domain or fragment) | 8 | 9 | 
2 | cytosolic domain of Aeromonas hydrophila AscV (AscVC; residues 375–721) (domain or fragment) |  |  | 10
